Measurements as given in US20190010205A1.

Target: human prolactin receptor (hPRLR) expressed on mouse BaF3 cells (BaF3/hPRLR cells) (human) (UniProt P16471)
Experiment: cell-based or functional assay

human prolactin receptor (hPRLR) expressed on mouse BaF3 cells (BaF3/hPRLR cells) (human), sequence (P16471 25-622): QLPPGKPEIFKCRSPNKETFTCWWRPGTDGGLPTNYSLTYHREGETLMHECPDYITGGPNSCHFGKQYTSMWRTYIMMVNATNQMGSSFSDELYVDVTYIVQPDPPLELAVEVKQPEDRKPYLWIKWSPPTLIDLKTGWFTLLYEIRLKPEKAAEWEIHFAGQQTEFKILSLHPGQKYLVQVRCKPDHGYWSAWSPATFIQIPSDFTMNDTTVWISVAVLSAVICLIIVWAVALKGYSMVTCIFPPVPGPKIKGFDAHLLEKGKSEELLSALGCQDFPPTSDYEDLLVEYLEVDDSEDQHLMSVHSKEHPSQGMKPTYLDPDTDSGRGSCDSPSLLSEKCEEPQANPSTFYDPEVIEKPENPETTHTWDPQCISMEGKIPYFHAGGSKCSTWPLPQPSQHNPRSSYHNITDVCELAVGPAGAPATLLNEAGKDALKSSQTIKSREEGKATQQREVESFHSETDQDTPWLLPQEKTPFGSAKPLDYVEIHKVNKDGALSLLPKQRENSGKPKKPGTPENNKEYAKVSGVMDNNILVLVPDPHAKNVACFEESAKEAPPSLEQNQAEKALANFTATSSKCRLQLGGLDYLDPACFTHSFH

EC50, growth of BaF3/hPRLR cells (positive control): 2.1 pM
Substance: human prolactin (hPRL, R&D System Inc.) (from UniProt P01236 29-227) (ligand)
